Source: patent US6579848B1, “Depigmenting activity of agouti signal protein and peptides thereof” (The United States of America as represented by the …, priority 1995, dated 2003)

B1: agouti protein: Recombinant murine agouti signal protein purified from a baculovirus expression system (protein)
chain: MDVTRLLLATLVSFLCFFTVHSHLALEETLGDDRSLRSDSSMNSLDFSSVSIVALNKKSKKISRKEAEKRKRSSKKKASMKKVARPPPPSPCVATRDSCKPPAPACCDPCASCQCRFFGSACTCRVLNPNC

What was measured:
[1] = test system: melan-a cells; assay: Melanin production assay on extracts of treated melan-a cells; assay type: cell-based, murine; settings: extracts of melan-a cells cultured 5 days; 10 nM
Description: Assays for melanogenic catalytic activities as described below were carried out at pH 6.8, 37° C. for 60 minutes. (1) Tyrosine hydroxylase activity was measured using the [^3H]tyrosine assay (Hearing and Ekel, 1976; Hearing, 1987). This method specifically measures the tritiated water produced during the hydroxylation of tyrosine to DOPA. (2) DOPA oxidase activity was measured using incorporation of [3-^14C]DOPA into acid-insoluble melanin as detailed previously (Aroca et al., 1993). (3) DOPAchrome tautomerase activity was measured by HPLC as the disappearance of DOPAchrome substrate and the production of DHICA rather than DHI; data are converted to pmol products by comparison with known standards. The HPLC assay was detailed previously (Palumbo et al., 1987; Tsukamoto et al., 1992). (4) DHI oxidase and DHICA oxidase activities were measured by HPLC as the disappearance of these substrates from reaction mixtures compared to controls for spontaneous auto-oxidation; data are converted to pmol by comparison with known standard (Aroca et al., 1993). (5) Melanin production was measured using incorporation of [^14C]tyrosine into acid-insoluble melanin, also as detailed previously (Hearing and Ekel, 1976; Hearing, 1987); pmol melanin produced are calculated from the radioactive product. […]

[2] = test system: melan-a cells; assay: Pigmentation and ultrastructure of melan-a cells; assay type: cell-based, murine
Description: Cells were harvested, centrifuged for 5 minutes at 14,000 g at 4° C., and fixed for 2 hours at 23° C. in 2% glutaraldehyde-2% paraformaldehyde in 0.1 M sodium cacodylate buffer, pH 7.3; the fixative was then removed and the samples were stored in phosphate-buffered saline containing 2% sucrose at 4° C. Samples were subsequently processed with graded alcohols and embedded in epoxy resin for electron microscopy in the usual manner. Thin sections were stained with uranyl acetate and lead citrate, viewed and photographed with a Zeiss EM10 electron microscope, as previously detailed (Prota et al., 1995).

[3] = Retention of activity at 37° in water or tissue culture media; assay type: physicochemical
Source text: (§1) Recombinant mouse ASP was generated and purified using a baculovirus expression system as described in Ollmann et al. (in preparation). […] The experiment described in FIG. 2 has also been repeated with an ASP preparation ≧99% pure with virtually identical results.

[4] = test system: melan-a murine melanocytes; assay: Chemical analysis of eumelanin and pheomelanin contents of melan-a melanocytes; assay type: cell-based; settings: black melan-a murine melanocytes in vitro
Description: Chemical degradation and analysis of eumelanin and pheomelanin contents were performed and quantitated as previously reported (Ito and Fujita, 1985).

[5] = test system: MSH receptor; assay: Northern blotting of MSH receptor RNA in B16F10 melanoma cells; assay type: cell-based; settings: B16F10 murine melanoma cells, 10 nM, 5 days
Description: (§2) The melan-a melanocyte cell line was used as described in Example 1. This clonal line was derived from C57B1 nonagouti black mice. The growth medium was minimum essential medium containing 200 nM TPA. B16F10 melanoma cells were also used to compare the effect of agouti protein with melan-a. These cells were grown in Dulbecco's modified Eagle medium.
(§3) Recombinant agouti protein was purified from baculovirus system by Dr. Michael Ollmann in Dr. Gregory Barsh's laboratory by methods known in the art. 2×10^6 cells were seeded per 15 cm diameter dish. The medium was changed everyday, and fresh agouti protein and/or αMSH added everyday usually at 10 nM. To examine transcriptional regulation, total RNA was isolated and Northern blotting performed by methods described in Example 1. The A26 probe to the MSH-R was provided by Dr. R. Cone and is described in Mountjoy et al. Science 257:1248-1251, 1992. At the translational level, metabolic labeling was used in conjunction with immunoprecipitation as described in Example 1. Western blotting and enzyme assay was used to examine function.
(§4) The effect of agouti protein and MSH observed for melan-a cells was confirmed using B16F10 murine melanoma cells. Similar effects were observed (FIG. 13).

[6] = test system: tyrosinase; assay: Northern blotting of tyrosinase RNA in B16F10 melanoma cells; assay type: cell-based; settings: B16F10 murine melanoma cells, 10 nM, 5 days
Description: as §2, §3, §4

[7] = biological target: MC1-R; assay: Inhibition of activation of the MC1-R; assay type: biochemical; settings: preparation ≧90% pure
Source text: as §1

| Molecule | melanin production [1] | pigmentation of the cells ([2]; black melan-a murine melanocytes in vitro) | amount of melanosomes (ultrastructural study) ([2]; melan-a cells, 10 nM, 5 days) | melanosome structure (ultrastructural study) ([2]; melan-a cells, 10 nM, 5 days) | color of cell pellet ([2]; melan-a cells, 10 nM, 5 days incubation) | time for which activity is retained [3] | eumelanin production [4] | synthesis of pheomelanin [4] | MSH receptor expression [5] | tyrosinase RNA [6] | Ki [7] |
| --- | --- | --- | --- | --- | --- | --- | --- | --- | --- | --- | --- |
| α-melanocyte stimulating hormone [MSH, reference compound] | 6.3 ± 0.5 pmol/μg protein/hr |  |  |  |  |  |  |  |  |  |  |
| B1 | 0.22 ± 0.0 pmol/μg protein/hr | markedly inhibited | decreased | pheomelanosome-like structures were found | changed from black to light brown | more than 48 hours | significantly decreased | increased | elevated | did not reduce tyrosinase RNA below baseline | 0.22 nM |
